For two substances, Kd results are on record in article PMC6298664.

For assay [1], the target named is Spermidine N-acetyltransferase (SpeG) from Escherichia coli (Escherichia coli str. K-12 substr. MG1655) (UniProt P0A951). The assay is described as follows: SPR; SpeG (46 uM) amine-coupled to a carboxymethyl dextran chip; RcsB constructs as analytes; no spermidine; 4 C; 10 mM HEPES pH 8.3, 100 mM sodium chloride; Reichert SR7500DC; one-to-one model. A general note: SPR reads the build-up and loss of mass on a sensor chip optically.
Sequence of UniProt P0A951 (P0A951 whole entry): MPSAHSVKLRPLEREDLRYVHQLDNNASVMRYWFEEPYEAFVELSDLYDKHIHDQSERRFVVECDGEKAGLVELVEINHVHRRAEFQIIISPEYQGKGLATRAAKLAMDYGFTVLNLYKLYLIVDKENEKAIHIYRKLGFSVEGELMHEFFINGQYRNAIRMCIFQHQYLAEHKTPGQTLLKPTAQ

Assay [2] has the same target. The assay is described as follows: SPR; SpeG (46 uM) amine-coupled; the surface exposed to 0.5 mM spermidine before the RcsB constructs were injected as analytes; 4 C; 10 mM HEPES pH 8.3, 100 mM sodium chloride; Reichert4SR; one-to-one model.

In the case of “C-terminal DNA binding domain of RcsB (residues 128-216) (from UniProt P0DMC7 128-216) (domain or fragment)”, the dissociation constant Kd – broadly, a measure of binding affinity in units of concentration – in assay [1] was determined as 67 µM; in assay [2], 281 µM. For the substance “full-length RcsB from Escherichia coli (from UniProt P0DMC7 1-216) (natural protein)”, in assay [2], the equilibrium dissociation constant (Kd) came to 128 µM.
